Assays:
[1] = system: RNase E NTD 8x mutant (Escherichia coli); experiment: BLI; details: 5' monophosphate; 3' U-biotin ligated; BLI: 25 mM HEPES pH 7.0, 150 mM NaCl, 100 mM KCl, 10 mM CaCl2, 0.5 mM TCEP; RNA immobilised on streptavidin sensors, protein 0-500 nM; temperature not stated
[2] = system: RNase E NTD WT (Escherichia coli); experiment: BLI; details: 3' U-biotin ligated, BLI: 25 mM HEPES pH 7.0, 150 mM NaCl, 100 mM KCl, 10 mM CaCl2, 0.5 mM TCEP, RNA immobilised on streptavidin sensors, protein 0-500 nM, temperature not stated

| Substance | Kd [1] | Kd ([2]; 5' monophosphate) | Kd ([2]; 5' triphosphate) |
| --- | --- | --- | --- |
| RprA 5'-monophosphate | 47 nM | 15.6 nM | – |
| RprA 5'-triphosphate | – | – | 8.6 nM |

Reference: PMC6202311
